Measurements: patent EP4628097A1 (Innovent Biologics (Suzhou) Co., Ltd., dated 2025)

Columns and labels:
[1] = biological target: Tie2-Fc (Beijing Sino Biological, Catalog No. 10700-H03H) (UniProt Q02763); assay: ELISA: biotin-Ang2 (0.2 ug/mL) on coated Tie2-Fc, no antibody (blank of the blocking assay)
[2] = biological target: T1, human VEGF165 (human, UniProt P15692-4 27-191); assay: BLI (ForteBio), bivalent binding; * exceeds ForteBio detection limit
T1 construct: all are put under this molecule; also called VEGF A; VEGFA
T1 sequence (P15692 other isoform, or with tags, fused parts or gaps limits assumed): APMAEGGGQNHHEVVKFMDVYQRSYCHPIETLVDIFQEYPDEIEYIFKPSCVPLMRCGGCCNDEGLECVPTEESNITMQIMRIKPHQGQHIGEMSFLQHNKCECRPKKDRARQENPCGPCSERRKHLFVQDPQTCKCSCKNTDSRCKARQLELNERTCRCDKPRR

[3] = biological target: T2, human Ang2 (human, UniProt O15123 19-496, limits assumed); assay: blocking ELISA: biotinylated hAng2 on coated hTie2, antibody titrated from 300 nM
T2 construct: Bought proteins; also called hAng2-biotin; Ang2-Bio (Sino)
T2 sequence (looked up): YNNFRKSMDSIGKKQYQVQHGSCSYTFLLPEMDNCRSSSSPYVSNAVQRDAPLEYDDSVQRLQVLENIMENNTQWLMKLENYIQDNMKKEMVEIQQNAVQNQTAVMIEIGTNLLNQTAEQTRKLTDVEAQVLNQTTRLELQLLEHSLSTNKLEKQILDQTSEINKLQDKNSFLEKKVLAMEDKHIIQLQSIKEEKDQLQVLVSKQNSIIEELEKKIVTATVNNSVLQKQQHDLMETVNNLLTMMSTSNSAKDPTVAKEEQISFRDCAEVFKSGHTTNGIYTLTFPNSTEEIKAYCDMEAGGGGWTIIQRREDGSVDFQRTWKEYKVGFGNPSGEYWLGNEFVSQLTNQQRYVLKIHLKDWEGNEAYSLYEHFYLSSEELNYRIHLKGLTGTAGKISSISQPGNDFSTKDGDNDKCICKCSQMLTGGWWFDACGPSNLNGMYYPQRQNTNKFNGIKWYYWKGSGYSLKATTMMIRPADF

Tie2-Fc (Beijing Sino Biological, Catalog No. 10700-H03H), sequence (Q02763 23-745 limits assumed): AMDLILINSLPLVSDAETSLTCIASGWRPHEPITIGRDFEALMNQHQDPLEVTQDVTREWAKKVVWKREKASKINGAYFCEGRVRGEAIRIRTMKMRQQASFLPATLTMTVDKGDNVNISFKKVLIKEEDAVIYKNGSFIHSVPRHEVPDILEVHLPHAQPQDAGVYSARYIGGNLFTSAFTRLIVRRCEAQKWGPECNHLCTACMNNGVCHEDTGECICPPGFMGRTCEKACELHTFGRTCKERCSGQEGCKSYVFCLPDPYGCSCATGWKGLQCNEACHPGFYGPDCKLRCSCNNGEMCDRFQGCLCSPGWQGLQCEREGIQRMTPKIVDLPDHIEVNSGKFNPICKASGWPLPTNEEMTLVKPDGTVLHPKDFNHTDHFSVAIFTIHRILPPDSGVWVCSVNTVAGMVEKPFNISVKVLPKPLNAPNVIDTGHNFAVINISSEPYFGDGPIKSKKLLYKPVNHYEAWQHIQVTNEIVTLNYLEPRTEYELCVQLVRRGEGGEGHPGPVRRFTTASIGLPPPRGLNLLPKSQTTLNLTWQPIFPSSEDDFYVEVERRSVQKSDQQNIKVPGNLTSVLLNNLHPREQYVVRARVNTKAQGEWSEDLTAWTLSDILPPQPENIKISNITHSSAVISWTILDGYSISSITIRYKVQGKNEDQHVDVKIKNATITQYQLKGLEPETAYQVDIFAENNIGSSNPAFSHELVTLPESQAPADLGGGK

human Ang2 (from UniProt O15123 19-496) (ligand)
OD450nm [1]: 3.45 OD450nm

B1: LA46E11 (VHH)
VHH: QVQLEESGGGLVQPGGSLRLSCVASGSIFSINAMGWHRQAPGSQRELVATMIGGSSTFYADSVNGRFTISRDNAKNTVYLQMNSLKLEDTAVYYCYADVTGRSGTSIWNKRDDYWGQGTLVTVSS
notes: Alpaca immune-library VHH; also called LA46E11 (VEGFA VHH); anti-VEGF A VHH antibody
koff [2]: ≤ 0.0002 s⁻¹

B2: IEX04-008 (bispecific antibody)
chain: EVQLLESGGGLVQPGGSLRLSCAASGSIFSINAMGWHRQAPGKQRELVATMIGGSSTFYAESVQGRFTISRDNSKNTVYLQMNSLRAEDTAVYYCYADVTGRSGTSIWNKRDDYWGQGTQVTVSSGGGGSGGGGSEVQLLESGGGLVQPGGSLRLSCAASGSIFSINAMGWHRQAPGKQRELVATMIGGSSTFYAESVQGRFTISRDNSKNTVYLQMNSLRAEDTAVYYCYADVTGRSGTSIWNKRDDYWGQGTQVTVSSGGGGSGGGGSEVQLLESGGGLVQPGGSLRLSCAASGFALDYYAIGWFRQAPGKGLEGVSCISSGEGSTYYADSVKGRFTISRDNSKNTVYLQMNSLRAEDTAVYYCATDSRGDDVACEGLRRNEYDYWGQGTLVTVSS
notes: expressed in 293 cells; also called LA46E11.8 (VHH) + linker + LA46E11.8 (VHH) + LA24C11.10
binding result [3]: binds
